Measured values as given in paper doi:10.1101/2025.10.17.683123.

Target: HCMV Pr S225M (human cytomegalovirus) (UniProt P16753)
Test: SEC-MALS; HCMV Pr alone on SEC, eluate into Wyatt Dawn Pro and Optilab; concentration not given

HCMV Pr S225M (from UniProt P16753) (enzyme)
stoichiometry N: 2
